What follows are binders tested against human CD40 (hCD40-his) (human, UniProt P25942 21-193) (assay: SPR Biacore T200; binder captured on protein A chip, target as analyte).
Description: Binding affinity to human CD40 of the obtained fusion proteins PDL1-C40-6A7-FV3A (IgG1), PDL1-C40-6A7-FV3A-IgG4, PDL1-C40-6A7-FV3C (IgG1), PDL1-C40-6A7-FV3A1 (IgG1), PDL1-C40-6A7-FV3A2 (IgG1), and PDL1-C40-6A7-FV3A3 (IgG1) were determined by surface plasmon resonance (SPR) using Biacore™ T200 biosensor equipped with pre-immobilized protein A sensor chips. The original anti-CD40 monoclonal antibody C40-6A7 IgG2 (6A7, VH SEQ ID NO: 91, VL SEQ ID NO: 92), which the scFV was derived from, was used as a control.

Sequence of human CD40 (hCD40-his) (P25942 21-193 limits assumed): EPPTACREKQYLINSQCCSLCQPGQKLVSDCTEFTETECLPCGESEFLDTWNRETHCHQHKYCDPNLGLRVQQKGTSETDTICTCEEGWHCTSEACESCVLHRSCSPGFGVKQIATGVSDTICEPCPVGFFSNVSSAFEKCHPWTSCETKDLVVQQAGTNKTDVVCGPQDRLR

Binder	Kd	koff	kon
PDL1-C40-6A7-FV3A1 (IgG1) (bispecific antibody, IgG1) heavy: EVQLLESGGGLVQPGGSLRLSCAASGFTFSSYIMMWVRQAPGKGLEWVSSIYPSGGITFYADTVKGRFTISRDNSKNTLYLQMNSLRAEDTAVYYCARIKLGTVTTVDYWGQGTLVTVSSASTKGPSVFPLAPSSKSTSGGTAALGCLVKDYFPEPVTVSWNSGALTSGVHTFPAVLQSSGLYSLSSVVTVPSSSLGTQTYICNVNHKPSNTKVDKKVEPKSCDKTHTCPPCPAPELLGGPSVFLFPPKPKDTLMISRTPEVTCVVVDVSHEDPEVKFNWYVDGVEVHNAKTKPREEQYNSTYRVVSVLTVLHQDWLNGKEYKCKVSNKALPAPIEKTISKAKGQPREPQVYTLPPSRDELGGGGSGGGGSDVVMTQSPLSLPVTLGQPASISCRSSQSLLHSNGNTYLHWYQQRPGQSPNHLIYQVSNRFSGVPDRFSGSGSGTDFTLKISRVEAEDVGVYFCSQTTHVPWTFGCGTKVEIKGGGGSGGGGSGGGGSGGGGSQVQLVQSGAEVKKPGASVKLSCKASGYTFISYYIYWVKQAPGQCLEWIGGINPRNGGTNFNEKFKSRATLTVDTSISTAYMELSRLRSEDTAVYYCTRHGNGVYWGQGTTLTVSSGGGGSGGGGSTKNQVSLTCLVKGFYPSDIAVEWESNGQPENNYKTTPPVLDSDGSFFLYSKLTVDKSRWQQGNVFSCSVMHEALHNHYTQKSLSLSPGK light: QSALTQPASVSGSPGQSITISCTGTSSDVGGYNYVSWYQQHPGKAPKLMIYDVSNRPSGVSNRFSGSKSGNTASLTISGLQAEDEADYYCSSYTSSSTRVFGTGTKVTVLGQPKANPTVTLFPPSSEELQANKATLVCLISDFYPGAVTVAWKADGSPVKAGVETTKPSKQSNNKYAASSYLSLTPEQWKSHRSYSCQVTHEGSTVEKTVAPTECS	0.63 nM	0.000388 s⁻¹	616000 M⁻¹ s⁻¹
PDL1-C40-6A7-FV3A2 (IgG1) (bispecific antibody, IgG1; scFv inserted between EU 359 and 360) heavy: EVQLLESGGGLVQPGGSLRLSCAASGFTFSSYIMMWVRQAPGKGLEWVSSIYPSGGITFYADTVKGRFTISRDNSKNTLYLQMNSLRAEDTAVYYCARIKLGTVTTVDYWGQGTLVTVSSASTKGPSVFPLAPSSKSTSGGTAALGCLVKDYFPEPVTVSWNSGALTSGVHTFPAVLQSSGLYSLSSVVTVPSSSLGTQTYICNVNHKPSNTKVDKKVEPKSCDKTHTCPPCPAPELLGGPSVFLFPPKPKDTLMISRTPEVTCVVVDVSHEDPEVKFNWYVDGVEVHNAKTKPREEQYNSTYRVVSVLTVLHQDWLNGKEYKCKVSNKALPAPIEKTISKAKGQPREPQVYTLPPSRDELTGGGGSGGGGSDVVMTQSPLSLPVTLGQPASISCRSSQSLLHSNGNTYLHWYQQRPGQSPNHLIYQVSNRFSGVPDRFSGSGSGTDFTLKISRVEAEDVGVYFCSQTTHVPWTFGCGTKVEIKGGGGSGGGGSGGGGSGGGGSQVQLVQSGAEVKKPGASVKLSCKASGYTFISYYIYWVKQAPGQCLEWIGGINPRNGGTNFNEKFKSRATLTVDTSISTAYMELSRLRSEDTAVYYCTRHGNGVYWGQGTTLTVSSGGGGSGGGGSKNQVSLTCLVKGFYPSDIAVEWESNGQPENNYKTTPPVLDSDGSFFLYSKLTVDKSRWQQGNVFSCSVMHEALHNHYTQKSLSLSPGK light: QSALTQPASVSGSPGQSITISCTGTSSDVGGYNYVSWYQQHPGKAPKLMIYDVSNRPSGVSNRFSGSKSGNTASLTISGLQAEDEADYYCSSYTSSSTRVFGTGTKVTVLGQPKANPTVTLFPPSSEELQANKATLVCLISDFYPGAVTVAWKADGSPVKAGVETTKPSKQSNNKYAASSYLSLTPEQWKSHRSYSCQVTHEGSTVEKTVAPTECS	0.847 nM	0.000375 s⁻¹	443000 M⁻¹ s⁻¹
C40-6A7 (IgG2) (antibody, V domains shown, IgG2; also called original anti-CD40 monoclonal antibody) VH: QVQLVQSGAEVKKPGASVKLSCKASGYTFISYYIYWVKQAPGQGLEWIGGINPRNGGTNFNEKFKSRATLTVDTSISTAYMELSRLRSEDTAVYYCTRHGNGVYWGQGTTLTVSS VL: DVVMTQSPLSLPVTLGQPASISCRSSQSLLHSNGNTYLHWYQQRPGQSPNHLIYQVSNRFSGVPDRFSGSGSGTDFTLKISRVEAEDVGVYFCSQTTHVPWTFGGGTKVEIK	3.09 nM	0.00171 s⁻¹	554000 M⁻¹ s⁻¹

The next lines start with the values.

Kd	koff	kon	Binder
1.04 nM	0.000379 s⁻¹	364000 M⁻¹ s⁻¹	PDL1-C40-6A7-FV3A3 (IgG1) (bispecific antibody, IgG1; scFv inserted between EU 360 and 361) heavy: EVQLLESGGGLVQPGGSLRLSCAASGFTFSSYIMMWVRQAPGKGLEWVSSIYPSGGITFYADTVKGRFTISRDNSKNTLYLQMNSLRAEDTAVYYCARIKLGTVTTVDYWGQGTLVTVSSASTKGPSVFPLAPSSKSTSGGTAALGCLVKDYFPEPVTVSWNSGALTSGVHTFPAVLQSSGLYSLSSVVTVPSSSLGTQTYICNVNHKPSNTKVDKKVEPKSCDKTHTCPPCPAPELLGGPSVFLFPPKPKDTLMISRTPEVTCVVVDVSHEDPEVKFNWYVDGVEVHNAKTKPREEQYNSTYRVVSVLTVLHQDWLNGKEYKCKVSNKALPAPIEKTISKAKGQPREPQVYTLPPSRDELTKGGGGSGGGGSDVVMTQSPLSLPVTLGQPASISCRSSQSLLHSNGNTYLHWYQQRPGQSPNHLIYQVSNRFSGVPDRFSGSGSGTDFTLKISRVEAEDVGVYFCSQTTHVPWTFGCGTKVEIKGGGGSGGGGSGGGGSGGGGSQVQLVQSGAEVKKPGASVKLSCKASGYTFISYYIYWVKQAPGQCLEWIGGINPRNGGTNFNEKFKSRATLTVDTSISTAYMELSRLRSEDTAVYYCTRHGNGVYWGQGTTLTVSSGGGGSGGGGSNQVSLTCLVKGFYPSDIAVEWESNGQPENNYKTTPPVLDSDGSFFLYSKLTVDKSRWQQGNVFSCSVMHEALHNHYTQKSLSLSPGK light: QSALTQPASVSGSPGQSITISCTGTSSDVGGYNYVSWYQQHPGKAPKLMIYDVSNRPSGVSNRFSGSKSGNTASLTISGLQAEDEADYYCSSYTSSSTRVFGTGTKVTVLGQPKANPTVTLFPPSSEELQANKATLVCLISDFYPGAVTVAWKADGSPVKAGVETTKPSKQSNNKYAASSYLSLTPEQWKSHRSYSCQVTHEGSTVEKTVAPTECS
1.09 nM	0.000427 s⁻¹	391000 M⁻¹ s⁻¹	PDL1-C40-6A7-FV3A (IgG1) (bispecific antibody, IgG1; also called G3) heavy: EVQLLESGGGLVQPGGSLRLSCAASGFTFSSYIMMWVRQAPGKGLEWVSSIYPSGGITFYADTVKGRFTISRDNSKNTLYLQMNSLRAEDTAVYYCARIKLGTVTTVDYWGQGTLVTVSSASTKGPSVFPLAPSSKSTSGGTAALGCLVKDYFPEPVTVSWNSGALTSGVHTFPAVLQSSGLYSLSSVVTVPSSSLGTQTYICNVNHKPSNTKVDKKVEPKSCDKTHTCPPCPAPELLGGPSVFLFPPKPKDTLMISRTPEVTCVVVDVSHEDPEVKFNWYVDGVEVHNAKTKPREEQYNSTYRVVSVLTVLHQDWLNGKEYKCKVSNKALPAPIEKTISKAKGQPREPQVYTLPPSRDEGGGGSGGGGSDVVMTQSPLSLPVTLGQPASISCRSSQSLLHSNGNTYLHWYQQRPGQSPNHLIYQVSNRFSGVPDRFSGSGSGTDFTLKISRVEAEDVGVYFCSQTTHVPWTFGCGTKVEIKGGGGSGGGGSGGGGSGGGGSQVQLVQSGAEVKKPGASVKLSCKASGYTFISYYIYWVKQAPGQCLEWIGGINPRNGGTNFNEKFKSRATLTVDTSISTAYMELSRLRSEDTAVYYCTRHGNGVYWGQGTTLTVSSGGGGSGGGGSVSLTCLVKGFYPSDIAVEWESNGQPENNYKTTPPVLDSDGSFFLYSKLTVDKSRWQQGNVFSCSVMHEALHNHYTQKSLSLSPGK light: QSALTQPASVSGSPGQSITISCTGTSSDVGGYNYVSWYQQHPGKAPKLMIYDVSNRPSGVSNRFSGSKSGNTASLTISGLQAEDEADYYCSSYTSSSTRVFGTGTKVTVLGQPKANPTVTLFPPSSEELQANKATLVCLISDFYPGAVTVAWKADGSPVKAGVETTKPSKQSNNKYAASSYLSLTPEQWKSHRSYSCQVTHEGSTVEKTVAPTECS
0.865 nM	0.000472 s⁻¹	546000 M⁻¹ s⁻¹	PDL1-C40-6A7-FV3C (IgG1) (bispecific antibody, IgG1; scFv inserted between EU 384 and 385) heavy: EVQLLESGGGLVQPGGSLRLSCAASGFTFSSYIMMWVRQAPGKGLEWVSSIYPSGGITFYADTVKGRFTISRDNSKNTLYLQMNSLRAEDTAVYYCARIKLGTVTTVDYWGQGTLVTVSSASTKGPSVFPLAPSSKSTSGGTAALGCLVKDYFPEPVTVSWNSGALTSGVHTFPAVLQSSGLYSLSSVVTVPSSSLGTQTYICNVNHKPSNTKVDKKVEPKSCDKTHTCPPCPAPELLGGPSVFLFPPKPKDTLMISRTPEVTCVVVDVSHEDPEVKFNWYVDGVEVHNAKTKPREEQYNSTYRVVSVLTVLHQDWLNGKEYKCKVSNKALPAPIEKTISKAKGQPREPQVYTLPPSRDELTKNQVSLTCLVKGFYPSDIAVEWESNGGGGSGGGGSDVVMTQSPLSLPVTLGQPASISCRSSQSLLHSNGNTYLHWYQQRPGQSPNHLIYQVSNRFSGVPDRFSGSGSGTDFTLKISRVEAEDVGVYFCSQTTHVPWTFGCGTKVEIKGGGGSGGGGSGGGGSGGGGSQVQLVQSGAEVKKPGASVKLSCKASGYTFISYYIYWVKQAPGQCLEWIGGINPRNGGTNFNEKFKSRATLTVDTSISTAYMELSRLRSEDTAVYYCTRHGNGVYWGQGTTLTVSSGGGGSGGGGSGQPENNYKTTPPVLDSDGSFFLYSKLTVDKSRWQQGNVFSCSVMHEALHNHYTQKSLSLSPGK light: QSALTQPASVSGSPGQSITISCTGTSSDVGGYNYVSWYQQHPGKAPKLMIYDVSNRPSGVSNRFSGSKSGNTASLTISGLQAEDEADYYCSSYTSSSTRVFGTGTKVTVLGQPKANPTVTLFPPSSEELQANKATLVCLISDFYPGAVTVAWKADGSPVKAGVETTKPSKQSNNKYAASSYLSLTPEQWKSHRSYSCQVTHEGSTVEKTVAPTECS

Reference: patent publication US20240360201A1 (BIOCYTOGEN PHARMACEUTICALS BEIJING, published 2024)
